Numbering of substitutions follows the chain as printed. In names and notes the source's numbering stands.
B1: v37690 (trispecific antibody, human IgG1, kappa, L234A L235A)
heavy 1: not shown
heavy 2: QVQLVESGGGLVQPGGSLRLSCSVSGIDLSSNPMIWVRQAPGKGLQYIGIIDTDGSTYYADWAKGRFTISKDSTTVYLQINSPRAEDTAVYYCARRLHGSSNGYYDDLWGQGTLVTVSSGGGGSGGGGSGGGGSGGGGSDGQMTQSPSSVSASVGDRVTITCQASQSIYSYLSWYQQKPGQRPKLLIYKASTLASGVPSRFSGSGSGTDFTLTISSVQPEDFATYYCQQGYTVTNVDKNTFGGGTKVEIKAAEPKSSDKTHTCPPCPAPEAAGGPSVFLFPPKPKDTLMISRTPEVTCVVVSVSHEDPEVKFNWYVDGVEVHNAKTKPREEQYNSTYRVVSVLTVLHQDWLNGKEYKCKVSNKALPAPIEKTISKAKGQPREPQVYVLPPSRDELTKNQVSLLCLVKGFYPSDIAVEWESNGQPENNYLTWPPVLDSDGSFFLYSKLTVDKSRWQQGNVFSCSVMHEALHNHYTQKSLSLSPG
light: DIQMTQSPSSLSASVGDRVTITCRASESVEYYVTSLMQWYQQKPGKAPKLLIYAASNVDSGVPSRFSGSGSGTDFTLTISSLQPEDIATYYCQQSRKVPFTFGGGTKVEIKRTVAAPSVFIFPPSDEQLKSGTASVVCLLNNFYPREAKVQWKVDNALQSGNSQESVTEQDSKDSTYSLSSTLTLSKADYEKHKVYACEVTHQGLSSPVTKSFNRGEC
notes: also called v37638 format, CD28 VH Y1112S
B2: v37634 (trispecific antibody, human IgG1, lambda, L234A L235A)
heavy 1: not shown
heavy 2: B1 heavy 2
light: NFMLTQPHSVSESPGKTVTISCKRNTGNIGSNYVNWYQQHEGSSPTTIIYRNDKRPDGVSDRFSGSIDRSSKSASLTISNLKTEDEADYFCQSYSSGFIFGGGTKLTVLGQPKAAPSVTLFPPSSEELQANKATLVCLISDFYPGAVTVAWKADSSPVKAGVETTTPSKQSNNKYAASSYLSLTPEQWKSHRSYSCQVTHEGSTVEKTVAPTECSGGGGSGDIQMTQSPSSLSASVGDRVTITCRASESVEYYVTSLMQWYQQKPGKAPKLLIYAASNVDSGVPSRFSGSGSGTDFTLTISSLQPEDIATYYCQQSRKVPFTFGGGTKVEIKGGGGSGGGGSGGGGSGGGGSQVQLQESGPGLVKPSETLSLTCAVSGFSLTSYGVHWIRQPPGKGLEWLGVIWPGGGTNFNSALMSRLTISEDTSKNQVSLKLSSVTAADTAVYYCARDRAYGNYLYAMDYWGQGTLVTVSS
notes: CD28 scFv on C-terminus of the CD3 Fab light chain; Het Fc, FcKO; also called CD3xCD28xCldn18.2 trispecific
B3: v37642 (trispecific antibody, human IgG1, kappa, L234A L235A)
heavy 1: not shown
heavy 2: EVQLVESGGGLVQPGGSLRLSCAASGVTFNYYGMSWIRQAPGKGLEWVASITSSGGRIYYPDSVKGRFTISRENTQKTLYLQMNSLRAEDTAVYYCTLDGRDGWVAYWGQGTLVTVSSGGGGSGGGGSGGGGSGGGGSNFMLTQPHSVSESPGKTVTISCKRNTGNIGSNYVNWYQQHEGSSPTTIIYRNDKRPDGVSDRFSGSIDRSSKSASLTISNLKTEDEADYFCQSYSSGFIFGGGTKLTVLAAEPKSSDKTHTCPPCPAPEAAGGPSVFLFPPKPKDTLMISRTPEVTCVVVSVSHEDPEVKFNWYVDGVEVHNAKTKPREEQYNSTYRVVSVLTVLHQDWLNGKEYKCKVSNKALPAPIEKTISKAKGQPREPQVYVLPPSRDELTKNQVSLLCLVKGFYPSDIAVEWESNGQPENNYLTWPPVLDSDGSFFLYSKLTVDKSRWQQGNVFSCSVMHEALHNHYTQKSLSLSPG
light: B1 light
notes: also called Cldn18.2xCD28xCD3 trispecific
B4: v37694 (trispecific antibody, human IgG1, kappa, L234A L235A)
heavy 1: not shown
heavy 2: B1 heavy 2
light: B1 light with Y31A
notes: also called v37638 format, CD28 VL Y1031A

Tests used:
[1] = target: T1, CD28 on primary human T cells (human, UniProt P10747 19-220); assay: cell-based or functional assay
[2] = target: T1, CD28 on primary human T cells; assay: cell-based or functional assay; remark: listed apart in the source
[3] = target: T2, Recombinant human/cynomolgus/rhesus macaque CD28 mouse IgG2a Fc fusion protein (Acro Biosystems) (human/cynomolgus/rhesus macaque, UniProt P10747 19-152); assay: SPR Biacore T200, CD28-mIgG2a Fc on CM5
T2 construct: bought; also called huCD28

[4] = target: T3, Human CLDN18.2 (human); assay: flow cytometry, SNU 601 cells
T3 construct: on transfected HEK293-6E cells or native on SNU 601 cells
Procedure: To determine the impact of the trispecific construct format on the construct's ability to binding CLDN18.2, the binding affinity to CLDN18.2 was measured for certain constructs using flow cytometry as described below.
To that end, cells (>80% viability) were resuspended to 1×10⁶ cells/mL in FACS buffer (PBS+2% FBS; Gibco) and seeded in a 96 well v-bottom plate (Sarstedt). Cells were mixed with antibody dilutions and incubated at 4° C. for one hour. Following incubation, cells were washed twice by adding 150 mL FACS buffer and centrifuging for 400×g for 3 minutes. […] Cells were washed twice by adding 150 mL FACS buffer and centrifuging for 400×g for 3 minutes. Cells were resuspended in FACS buffer and acquired on the BD LSRFortessa Cell Analyzer.

[5] = target: T4, Recombinant human CD3 epsilon/delta heterodimer, his tag protein (Acro Biosystems) (human, UniProt P07766 23-126; P04234 22-105); assay: SPR Biacore T200, CD3 e/d-his on CM5, construct injected, 1:1 model;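 also: measured at 25 °C in HEPES-buffered saline with EDTA and Tween 20 at pH 7.4, values are means of three independent runs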
T4 construct: bought

[6] = target: T5, Recombinant human/Cynomolgus/Rhesus macaque CD28 Protein, His Tag (Acro Biosystems) (human/cynomolgus/rhesus macaque, UniProt P10747 19-152); assay: SPR, v37634 captured on anti-human IgG Fc on CM5, CD28-his tag flowed
T5 construct: used only for v37634; also called CD28-his tag

[7] = target: T1, CD28 on primary human T cells; assay: cell-based or functional assay; remark: listed apart in the source
[8] = target: T1, CD28 on primary human T cells; assay: cell-based or functional assay; remark: listed apart in the source
[9] = target: T1, CD28 on primary human T cells; assay: cell-based or functional assay; remark: listed apart in the source
[10] = target: T2, Recombinant human/cynomolgus/rhesus …; assay: SPR, in-format anti-CD28 variants, huCD28
[11] = target: T2, Recombinant human/cynomolgus/rhesus …; assay: SPR Biacore T200, CD28-mIgG2a Fc on CM5, construct injected, 1:1 model;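 also: fc fusion captured by amine coupling, run at 25 °C in HEPES buffer pH 7.4, association 140-500 s then dissociation 600-1200 s, values averaged over three independent runs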

Binder | IC50, T cell-dependent cytotoxicity on SNU 601 [1] [nM] | Maximum Killing (%), SNU 601 [1] [%] | IL-2 maximum cytokine, T cells alone [2] [pg/mL] | IL-2 maximum cytokine, T cells with SNU 601 cells [2] [pg/mL] | TNFa maximum cytokine, T cells alone [2] [pg/mL] | TNFa maximum cytokine, T cells with SNU 601 cells [2] [pg/mL] | binding result [3] | Bmax [4] [MFI] | EC50 [4] [nM] | Kd [5] [nM] | koff [5] [s⁻¹] | kon [5] [M⁻¹ s⁻¹] | further results
B1 | 0.00121 | 92.3 | 243 | 2700 | 23 | 518 | no binding |  |  |  |  |  | 
B2 |  |  |  |  |  |  |  | 6840 | 27.2 | 77.6 | 0.0123 | 163000 | Kd [6]: 258 nM; koff [6]: 0.00187 s⁻¹; kon [6]: 7230 M⁻¹ s⁻¹
B3 |  |  |  |  |  |  |  | 9310 | 24.1 | 62 | 0.0117 | 189000 | IFNg mean cytokine, T cells alone, 45 nM construct [7]: 857 pg/mL; IL-2 mean cytokine, T cells alone, 45 nM construct [7]: 2930 pg/mL; IFNg EC50, T cells + SNU 601 [8]: 0.00367 nM; IFNg maximum cytokine, T cells + SNU 601 [8]: 3040 pg/mL; IL-2 EC50, T cells + SNU 601 [8]: 0.00267 nM; IL-2 maximum cytokine, T cells + SNU 601 [8]: 5060 pg/mL; IC50, TDCC on SNU 601-RFP, 1:5 E:T [9]: 0.0023 nM; IC50, TDCC on SNU 601-RFP, 2:1 E:T [9]: 0.000166 nM; Maximum Mean Cytotoxicity (%), 1:5 E:T [9]: 96.9%; Maximum Mean Cytotoxicity (%), 2:1 E:T [9]: 98.7%; Fold-change from WT [10]: 1 fold; Kd [10]: 42.3 nM; koff [10]: 0.00286 s⁻¹; kon [10]: 70400 M⁻¹ s⁻¹; Kd [11]: 20.2 nM; koff [11]: 0.00198 s⁻¹; kon [11]: 98200 M⁻¹ s⁻¹
B4 | 0.00144 | 93.1 | 29.9 | 226 | 12.9 | 166 | no binding |  |  |  |  |  | 

Reference: patent publication US20260028403A1 (Zymeworks, published 2026)
